Positions of bridges follow the written chain, without caps; N, C: chain ends. No end group written: not given here.
T1: His-tagged P3028 (human, not fully specified)
T1 construct: the tag is put first after 'PGE73=His-tag-P3028'; also called PGE73; not shown: His-tag
T1 peptide: {His‑tag}-VFDEFKPLVEEPQNLIK

T2: fusion protein of CD25 and the Fc-part of IgG (human, UniProt P01589 22-240, limits assumed)
T2 construct: also called rhuIL-2R alpha; rhuIL-2R
T2 sequence: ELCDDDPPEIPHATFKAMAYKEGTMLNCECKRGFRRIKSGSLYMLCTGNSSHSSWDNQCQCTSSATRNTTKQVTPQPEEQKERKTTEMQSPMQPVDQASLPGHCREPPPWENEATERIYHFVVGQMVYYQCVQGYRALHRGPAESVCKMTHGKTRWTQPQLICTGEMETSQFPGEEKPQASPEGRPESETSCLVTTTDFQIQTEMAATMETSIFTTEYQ

T3: His-tagged P3028 (human, also: His-tag, terminus and sequence not given here)
T3 construct: used in solution in the PEPSCAN (rampo) ELISA; also called PGE73; His-tag-P3028; not shown: His tag
T3 peptide: VFDEFKPLVEEPQNLIK

T4: His-tagged P3028 peptide (PGE73) (human)
T4 construct: also called His-tag-P3028; not shown: His-tag
T4 peptide: VFDEFKPLVEEPQNLIK

B1: peptide 32814 (peptide)
peptide: RKLDTFFVKLSLFTERRR
notes: K1R and two added C-terminal R against P28R
B2: cyclic peptide CLALNVMCG (peptide)
peptide: CLALNVMCG
modifications: bridge 1-8 (inferred); not fully specified
notes: also called lead cyclic peptide; lead looped peptide

Molecular target: T1, His-tagged P3028
Assay: chip ELISA with His-tag labelled P3028, positional scan
Method: (§1) Positional scans were performed in each position of the lead cyclic peptide was replaced with each of the other 19 L-amino acids.

binding result	Binder
binds	CLRLNVFCG (bridge 1-8 (inferred); not fully specified)
binds	CLRLIVMCG (bridge 1-8 (inferred); not fully specified)

Molecular target: T2, fusion protein of CD25 and the Fc-part …
Assay: ELISA, CD25-Fc on protein G coated plates, biotinylated IL-2 with or without P3028

binding result	Binder
binds	VFDEFKPLVEEPQNLIK [P3028]

Molecular target: T3, His-tagged P3028
Assay: positional scan / PEPSCAN ELISA

binding result	Binder
binds	FFVKLS (also called peptide 32230; FFVKLS) [P28 core]

Molecular target: Artificial Cell Surface (ACS): biotinylated cell surface proteins of PBMCs bound to streptavidin columns
Assay: Asp-N-digested dHSA adsorbed on ACS column, MALDI-TOF ms

Percent Absorbed [%]	Binder
37	YLSVVLNQLCVLHEKTPVSDRVTKCCCTESLVNRRPFSALEV [Asp-N-generated albumin fragment 475-517]
65	DKLCTVATLRETYGEM [Asp-N-generated albumin fragment 96-112]
100	LGEENFKALVLIAFAQYLQQCPFEDHVKLVNEVTEFAKTCVA [Asp-N-generated albumin fragment 37-79]
86	DETYVPKEFNAETFTHA [Asp-N-generated albumin fragment 518-535]
100	DHVKLVNEVTEFAKTCVA [Asp-N-generated albumin fragment 62-79]
65	DSISSKLKECCEKPLLEKSHCIAEVEN [Asp-N-generated albumin fragment 293-319]
87	DRVTKCCTESLVNRRPCFSALEV [Asp-N-generated albumin fragment 495-517]
100	ICTLSEKERQIKKQTALVELVKHKPKATKEQLKAVM [Asp-N-generated albumin fragment 536-572]
100	DDKETCFAEEGKKLVAASQAALGL [Asp-N-generated albumin fragment 586-609]
100	RVTKCCTESLVNRRPCFSALEVDETYVPKEFNAETFTFHA [Asp-N-generated albumin fragment 495-535]
100	KLCTVATLRETYGEMADCCAKQEPERNECFLQHK [Asp-N-generated albumin fragment 96-130]
100	VFLGMFLYEYARRHPDYSVVLLLRLAKTYETTLEKCCAAA [Asp-N-generated albumin fragment 348-388]
100	YSVVLLLRLAKTYETTLEKCCAAADPHECYAKVF [Asp-N-generated albumin fragment 364-398]
100	LAKYICENQDSISSKLKECCEKPLLEKHCIAEVEN [Asp-N-generated albumin fragment 283-319]

Molecular target: T3, His-tagged P3028
Assay: ELISA on chip with His-tag labeled P3028
Method: as §1

binding result	Binder
binds	CLALNVMCG (bridge 1-8 (inferred), also called lead looped peptide) [lead cyclic peptide CLALNVMCG]

Molecular target: T4, His-tagged P3028 peptide (PGE73)
Assay: PEPSCAN ELISA; peptide on card, His-tagged P3028 in solution
Method: After washing, the peroxidase substrate 2,2′-azine-di-3-ethylbenzthiazoline sulfonate (ABTS) and 2 μL of 3% H2O2 were added. The binding capacity of the mAb was measured as a color development at 405 nm (optical density, OD405). The color development was quantified with a charge-coupled device (CCD)—camera and an image processing system.
The OD405-values obtained by a CCD-camera was considered as raw data values (“rampo values,” “rampo units,” or “rampo scores”). […] First the CCD-camera made a picture of the card before peroxidase coloring and then again a picture after the peroxidase coloring. […] These values were copied into an excel file and labeled as a raw data file. One follow-up manipulation was allowed. Sometimes a well can contain an air-bubble resulting in a false-positive value. If manual inspection of the cards detect an air-bubble the value are set to 0 for that well.

RAMPO Score [rampo units]	Binder
> 500	KKEDTFFVKLSLFTER (P28R variant on PEPSCAN card) [SEQ ID NO: 5]
> 500	KKLDTFFVKLQLFTER (P28R variant on PEPSCAN card) [SEQ ID NO: 15]
> 500	KKLDTFFVKLSLMTER (P28R variant on PEPSCAN card) [SEQ ID NO: 22]
> 500	KKLDQFFVKLSLFTER (P28R variant on PEPSCAN card) [SEQ ID NO: 6]

Molecular target: T4, His-tagged P3028 peptide (PGE73)
Assay: positional scan, PEPSCAN ELISA on chip
Method: as §1

binding result	Binder
binds	B1
binds	KKLDTVMVKLQLMTER (Four changes against P28R) [peptide 30680]

Molecular target: Artificial Cell Surface (ACS): biotinylated cell surface proteins of PBMCs bound to streptavidin columns
Assay: trypsin-digested dHSA adsorbed on ACS column, MALDI-TOF ms

Percent Absorbed [%]	Binder
42	RPCFSALEVDETYVPK
3	YICENQDSISSK
8	FKDLGEENFK
64	KVPQVSTPTLVEVSR
1	DDNPNLPR [albumin fragment DDNPNLPR]
60	VFDEFKPLVEEPQNLIK
32	CCAAADPHECYAK
26	CCTESLVNR
23	AVMDDFAAFVEK
2	LDELRDEGK
36	SLHTLFGDK
13	VHTECCHGDLLECADDR
20	QNCELFEQLGEYK [albumin fragment O…]
71	KYLYEIAR [albumin fragment KYLYEIAR]
34	YLYEIAR [albumin fragment YLYEIAR]
35	LCTVATLR [albumin fragment LCTVATLR]
41	FQNALLVR [albumin fragment FQNALLVR]
59	VPQVSTPTLVEVSR
36	LKECCEKPLLEK
22	NECFLQHK [albumin fragment NECFLQHK]
29	AAFTECCQAADK

Molecular target: T1, His-tagged P3028
Assay: chip ELISA with His-tag labelled P3028
Method: as §1

binding result	Binder
binds	B2

Molecular target: T3, His-tagged P3028
Assay: positional scan, ELISA on chip with His-tag labeled P3028
Method: as §1

binding result	Binder
binds	CLRLNVFCG (bridge 1-8 (inferred))
binds	CLRLIVMCG (bridge 1-8 (inferred))
